In article PMC9349188 (Nature Communications, 2022):

B1: ACS101 Y100fW mutant monoclonal antibody (IgG) (antibody, V domains shown)
VH: EVQLLESGAEVKKPGASVRVSCEASGYTFTKYFIHWVRQAPGHGLEWIGWINTLTSGVNYARNFQGRLTLTRDLSTETVYMDLRNLKSDDTAVYYCARGGRGYDEPWGAWTWLDPWGQGSLVTVSS
VL: SYELTQPASVSGSPGQSITISCTGSSIGSYDLVSWYQQYPGKAPKVIIFEVSKRPSGVSHRFSGSKSGNTAALTISGLQVEDEAIYHCYSYDDMIIFGGGTRLTVL
B2: ACS103 Fab (Fab, V domains shown)
VH: QVQLVQSGAEVKRPGASVRVSCEASGYRFTAYHIHWLRQAPGQGLEWMGWVNTLTSGVNYGWKFQGRVKMTRERSIDTDTAYLDLSGLRLDDTAVYYCARGNGKSDDERSTYQYFGPWGQGTLVTVSS
VL: QTVVTQPASVSGSPGQSITISCAGSSSDIGSYDYVSWYQQHPGKAPKVVIYDVTKRPSDISHRFSASKSGNTASLTISGLQPEDEAQYRCCTYAQTVLCGGGTKLTVL

Key:
[1] = target: AMC009 SOSIP trimer (SOSIPv4.2) (HIV-1); assay: cell-based or functional assay
[2] = target: T1, AMC009 SOSIP trimer (SOSIP version not stated, negative stain EM) (HIV-1); assay: negative stain electron microscopy; conditions: both partners purified
T1 construct: copies: 3 + 3

Binder | neutralization of the AMC009 virus (TZM-bl cells), IC50 relative to ACS101 [1] | stoichiometry N [2]
B1 | ~12 fold | 
B2 |  | 3 Fabs per trimer
